Assay results published in publication PMC8069557.

Target: C-terminal extension of Bacillus cereus hemolysin II (HlyIICTD) (Bacillus cereus)
Assay: not stated; HlyIICTD in the presence of 4M urea

Substance: C-terminal extension of Bacillus cereus hemolysin II (HlyIICTD) (domain or fragment)
- stoichiometry N: 3
